According to PMC10378328, “Tissue Inhibitor of Metalloproteinases-1 Interacts with CD74 to Promote AKT Signaling, Monocyte Recruitment Responses, and Vascular Smooth Muscle Cell Proliferation” (Cells, 2023):

Molecular target: T1, N-terminal FLAG-tagged human CD74 (human, UniProt P04233 1-296)
T1 sequence (looked up): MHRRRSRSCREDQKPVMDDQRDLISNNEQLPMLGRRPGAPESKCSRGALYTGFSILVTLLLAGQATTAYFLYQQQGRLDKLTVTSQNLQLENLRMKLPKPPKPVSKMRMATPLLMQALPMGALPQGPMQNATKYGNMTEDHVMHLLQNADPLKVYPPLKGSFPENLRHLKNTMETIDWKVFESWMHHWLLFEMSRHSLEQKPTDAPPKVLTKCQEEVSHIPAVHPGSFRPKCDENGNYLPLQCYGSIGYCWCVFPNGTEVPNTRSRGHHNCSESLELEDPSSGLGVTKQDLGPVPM
Test: cell-based or functional assay

arrest of MonoMac6 cells on a monolayer of human aortic endothelial cells under flow, TIMP-1 at 200 and 400 ng/mL, optimal concentration 200 ng/mL: 2 fold
B1: recombinant human TIMP-1 (tissue inhibitor of metalloproteinases-1) (natural protein)
chain: not shown
